Measurements: PMC5762417

Legend:
[1] = target: Rev (Human immunodeficiency virus 1) (UniProt P04325); assay: fluorescence binding; conditions: cited from earlier work
[2] = target: Rev WT, labelled with Alexa 555 (HIV-1) (UniProt P04616); assay: fluorescence polarisation
[3] = test system: DDX21; assay: EMSA

DDX1 DEAD domain (from UniProt Q92499)
Kd [1]: 79 nM

DDX3 (from UniProt O00571 1-662) (enzyme)
Kd [2]: 122 nM

DDX3 DEAD domain (aa 211-403) (from UniProt O00571 211-403) (domain or fragment)
Kd [2]: 200 nM

RRE RNA (EMSA)
Kd [3]: 37 nM

B1: DDX21 (enzyme)
chain: MPGKLRSDAGLESDTAMKKGETLRKQTEEKEKKEKPKSDKTEEIAEEEETVFPKAKQVKKKAEPSEVDMNSPKSKKAKKKEEPSQNDISPKTKSLRKKKEPIEKKVVSSKTKKVTKNEEPSEEEIDAPKPKKMKKEKEMNGETREKSPKLKNGFPHPEPDCNPSEAASEESNSEIEQEIPVEQKEGAFSNFPISEETIKLLKGRGVTFLFPIQAKTFHHVYSGKDLIAQARTGTGKTFSFAIPLIEKLHGELQDRKRGRAPQVLVLAPTRELANQVSKDFSDITKKLSVACFYGGTPYGGQFERMRNGIDILVGTPGRIKDHIQNGKLDLTKLKHVVLDEVDQMLDMGFADQVEEILSVAYKKDSEDNPQTLLFSATCPHWVFNVAKKYMKSTYEQVDLIGKKTQKTAITVEHLAIKCHWTQRAAVIGDVIRVYSGHQGRTIIFCETKKEAQELSQNSAIKQDAQSLHGDIPQKQREITLKGFRNGSFGVLVATNVAARGLDIPEVDLVIQSSPPKDVESYIHRSGRTGRAGRTGVCICFYQHKEEYQLVQVEQKAGIKFKRIGVPSATEIIKASSKDAIRLLDSVPPTAISHFKQSAEKLIEEKGAVEALAAALAHISGATSVDQRSLINSNVGFVTMILQCSIEMPNISYAWKELKEQLGEEIDSKVKGMVFLKGKLGVCFDVPTASVTEIQEKWHDSRRWQLSVATEQPELEGPREGYGGFRGQREGSRGFRGQRDGNRRFRGQREGSRGPRGQRSGGGNKSNRSQNKGQKRSFSKAFGQ
Kd [2]: 21 nM

B2: DDX1 (enzyme)
chain: MAAFSEMGVMPEIAQAVEEMDWLLPTDIQAESIPLILGGGDVLMAAETGSGKTGAFSIPVIQIVYETLKDQQEGKKGKTTIKTGASVLNKWQMNPYDRGSAFAIGSDGLCCQSREVKEWHGCRATKGLMKGKHYYEVSCHDQGLCRVGWSTMQASLDLGTDKFGFGFGGTGKKSHNKQFDNYGEEFTMHDTIGCYLDIDKGHVKFSKNGKDLGLAFEIPPHMKNQALFPACVLKNAELKFNFGEEEFKFPPKDGFVALSKAPDGYIVKSQHSGNAQVTQTKFLPNAPKALIVEPSRELAEQTLNNIKQFKKYIDNPKLRELLIIGGVAARDQLSVLENGVDIVVGTPGRLDDLVSTGKLNLSQVRFLVLDEADGLLSQGYSDFINRMHNQIPQVTSDGKRLQVIVCSATLHSFDVKKLSEKIMHFPTWVDLKGEDSVPDTVHHVVVPVNPKTDRLWERLGKSHIRTDDVHAKDNTRPGANSPEMWSEAIKILKGEYAVRAIKEHKMDQAIIFCRTKIDCDNLEQYFIQQGGGPDKKGHQFSCVCLHGDRKPHERKQNLERFKKGDVRFLICTDVAARGIDIHGVPYVINVTLPDEKQNYVHRIGRVGRAERMGLAISLVATEKEKVWYHVCSSRGKGCYNTRLKEDGGCTIWYNEMQLLSEIEEHLNCTISQVEPDIKVPVDEFDGKVTYGQKRAAGGGSYKGHVDILAPTVQELAALEKEAQTSFLHLGYLPNQLFRTF
Kd [2]: 41 nM

B3: DDX21 DEAD domain (aa 217-396) (domain or fragment)
chain: FHHVYSGKDLIAQARTGTGKTFSFAIPLIEKLHGELQDRKRGRAPQVLVLAPTRELANQVSKDFSDITKKLSVACFYGGTPYGGQFERMRNGIDILVGTPGRIKDHIQNGKLDLTKLKHVVLDEVDQMLDMGFADQVEEILSVAYKKDSEDNPQTLLFSATCPHWVFNVAKKYMKSTYEQ
Kd [2]: 60 nM

B4: DDX21(183-620) (domain or fragment)
chain: QKEGAFSNFPISEETIKLLKGRGVTFLFPIQAKTFHHVYSGKDLIAQARTGTGKTFSFAIPLIEKLHGELQDRKRGRAPQVLVLAPTRELANQVSKDFSDITKKLSVACFYGGTPYGGQFERMRNGIDILVGTPGRIKDHIQNGKLDLTKLKHVVLDEVDQMLDMGFADQVEEILSVAYKKDSEDNPQTLLFSATCPHWVFNVAKKYMKSTYEQVDLIGKKTQKTAITVEHLAIKCHWTQRAAVIGDVIRVYSGHQGRTIIFCETKKEAQELSQNSAIKQDAQSLHGDIPQKQREITLKGFRNGSFGVLVATNVAARGLDIPEVDLVIQSSPPKDVESYIHRSGRTGRAGRTGVCICFYQHKEEYQLVQVEQKAGIKFKRIGVPSATEIIKASSKDAIRLLDSVPPTAISHFKQSAEKLIEEKGAVEALAAALAHISG
Kd [2]: 48 nM
